The values below come from patent US20250250357A1 (NANJING ZAIMING PHARMACEUTICAL, published 2025).

The chains are these.
T1: monkey MSLN full-length protein (NCBI: XP_028696439.1) expressed on HEK293T-monkey MSLN cells (monkey)
T1 construct: Whole encoded precursor
T1 chain: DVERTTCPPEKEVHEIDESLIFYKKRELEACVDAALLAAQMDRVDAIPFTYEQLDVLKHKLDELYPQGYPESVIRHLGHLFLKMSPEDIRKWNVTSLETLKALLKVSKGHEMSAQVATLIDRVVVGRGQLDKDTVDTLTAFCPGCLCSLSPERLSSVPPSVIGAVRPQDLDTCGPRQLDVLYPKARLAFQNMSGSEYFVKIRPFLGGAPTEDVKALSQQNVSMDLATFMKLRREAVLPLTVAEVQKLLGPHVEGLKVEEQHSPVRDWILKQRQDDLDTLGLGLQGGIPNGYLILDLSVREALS

B1: S009-F2.21.4 (antibody, human IgG1, kappa, V domains shown)
VH: EVQLQQSGPELVKPGASVKIPCKASGYTFTDYNMDWVKQSHGKSLEWIGDINPNNGGSIYNQRFKGKATLTVDKSSSTAYMELRSLTSEDSAVYYCARRAYYSTGYFDVWGTGTTVTVSS
VL: QIVLTQSPALMSASPGEKVTITCSASSSISYMHWFQQKPGTSPKLWIYSTSTLASGVPARFSGSGSGTSYSLTISRMEAEDTATYYCQQRSSYPPTFGGGTKLEIKR
notes: human-murine chimeric antibody, human IgG1/kappa constant regions
B2: S009-F2.17.3 (antibody, human IgG1, kappa, V domains shown)
VH: QVQLQQPGTELVTPGASVKLSCKASGYSFTSYWMHWVKQRPGQGLEWIGNINPSNGDTFYNEKFKNKATLTVDKSSSTAYMQLSSLTSEDSAVYYCARGWLRDYWGQGTTLTVSS
VL: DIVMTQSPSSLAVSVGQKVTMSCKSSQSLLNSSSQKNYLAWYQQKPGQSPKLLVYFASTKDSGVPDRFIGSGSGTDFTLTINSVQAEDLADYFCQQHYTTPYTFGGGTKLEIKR
notes: as for B1
B3: S009-F2.23.12 (antibody, human IgG1, kappa, V domains shown)
VH: QVQLQQPGTELVKPGASVKLSCKASGYTFTNYWMHWVKQRPGQGLEWIGNINPSNGGPYYNERFRSKATLTVDKSSSTAYMQLSSLTSEDSAVYYCARPYYGSSYGYFDYWGQGTTLTVSS
VL: DIQMTQSPSSLSASLGGKVTITCKASQDINKYIAWYQHKPGKGPRLLIHYTSELQPGIPSRFSGNGSGRDYSFSISNLEPEDIATYYCLQYANPLRTFGGGTKLEIKR
notes: as for B1
B4: S009-F2.16.10 (antibody, human IgG1, kappa, V domains shown)
VH: QVQLQQPGAELIKPGASVKLSCKASGYTFTSYWMHWVKQRPGQGLEWIGIIHPNIGSTNYNERFKSKATLTVDKSSSTAYMQLSSLTSEDSAVYYCARRSSNYGDWYFDVWGTGTTVTVSS
VL: DIVMTQSHRFMSTSVGDRVSITCKASQDVGTSVAWYQQKPGQSPKLLIYWASTQHTGVPDRFTGSGSGTDFTLTINNVQSEDLLDYFCQQYSSYPLTFGAGTKLELKR
notes: as for B1
B5: S009-F2.13.3 (antibody, human IgG1, kappa, V domains shown)
VH: QVQLQQSGAELMKPGASVKLSCKATGYTFTGYWIEWVKQRPGHGLEWIGEILPGSGSTNYNEKFKGKATFTADTSSNTAYMQLSSLTTEDSAIYYCARAGAWFAYWGQGTLVTVSA
VL: QIVLTQSPAIMSASLGERVTMTCTASSSVSSSYLHWYQQKPGSSPKLWTYSTSNLASGVPARFSGSGSGTSYSLTISSMEAEDAATYYCHQYHRSPWTFGGGTKLEIKR
notes: as for B1
B6: S009-F2.47.1 (antibody, human IgG1, kappa, V domains shown)
VH: QVQLQQPGAELVKPGASVKLSCKASGYTFTSYWMHWVKQRPGQGLEWIGMIHPNSGSTNYNEKFKSKATLTVDKSSSTAYMQLSSLTSEDSAVYYCARPVVPYWYFDVWGTGTTVTVSS
VL: DIVMTQSQKFMSTTVGDRVSITCKASQNVGTAVAWYQQKPGQSPKLLIYSASNRYTGVPDRFTGSGSGTDFTLTISNMQSEDLADYFCQQSSSYPLTFGAGTKLELKR
notes: as for B1
B7: S009-F8-36.12 (antibody, human IgG1, kappa, V domains shown)
VH: EVQLQQSGPELVKPGASVKISCKASGYTFTDYYMNWVKQSHGKSLEWIGDINPNNGGTSYNQKFKGKATLTVDKSSSTAYMELRSLTSEDSAVYYCASWGYGSSSRGYFDYWGQGTTLTVSS
VL: QIVLSQSPAILSASPGEKVTMTCRASSSVSYMHWYQQKPGSSPKPWIYATSNLASGVPARFSGSGSGTSYSLTISRVEAEDAATYYCQQWSSNPWTFGGGTKLEIKR
notes: Human-murine chimeric antibody, human IgG1 heavy and kappa light constant regions
B8: S009-F8-33.12 (antibody, human IgG1, kappa, V domains shown)
VH: EVQLQQSGAELVKPGASVKLSCTASAFNIKDYYMHWVKQRTEQGLEWIGRIDPEDGETKYAPKFQGKATITADTSSNTAYLQLSSLTSEDTAVYYCASGSGTGAMDYWGQGTSVTVSS
VL: DIVMTQSQKFMSTSVGDRVSITCKASQNVRTAVGWYQQKPGQSPKALIYLASNRHTGVPDRFTGSGSGTDFTLTISNVQSEDLADYFCLQHWNSPYTFGGGTKLVIKR
notes: as for B7
B9: S009-F8-32.3 (antibody, human IgG1, kappa, V domains shown)
VH: QVQLKESGPGLVAPSQSLSITCTVSGFSLSSYAISWVRQPPGKGLEWLGVIWTGGGTNYNSALKSRLSISKDNSKSQVFLKMNSLQTDDTARFYCARNNYGRLDYAMDYWGQGTSVTVSS
VL: DVVMTQTPLSLPVSLGDQASISCRSSQSLVHGNGNTYLHWYLQKPGQSPKLLIYKVSNRFSGVPDRFSGSGSGTDFTLKISRVETEDLGVYFCSQSTHVPFTFGSGTKLEIKR
notes: as for B7

T4 sequence (Q13421 495-614): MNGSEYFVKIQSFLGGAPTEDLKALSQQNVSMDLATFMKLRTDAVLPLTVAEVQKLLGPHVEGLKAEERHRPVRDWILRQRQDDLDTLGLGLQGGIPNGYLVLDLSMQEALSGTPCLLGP
T3 sequence (Q13421 other isoform, or with tags, fused parts or gaps limits assumed): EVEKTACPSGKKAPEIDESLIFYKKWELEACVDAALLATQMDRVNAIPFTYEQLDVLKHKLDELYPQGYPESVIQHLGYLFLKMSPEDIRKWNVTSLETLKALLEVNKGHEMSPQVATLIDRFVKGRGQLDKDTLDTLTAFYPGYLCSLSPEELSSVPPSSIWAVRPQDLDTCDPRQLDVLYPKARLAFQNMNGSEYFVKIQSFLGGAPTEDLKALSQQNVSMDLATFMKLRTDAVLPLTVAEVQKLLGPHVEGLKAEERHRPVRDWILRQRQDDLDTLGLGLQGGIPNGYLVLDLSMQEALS

For the first assay, the target named is T2, human MSLN protein endogenously expressed on OVCAR3 tumor cells (human, UniProt Q13421 296-598).
T2 construct: whole, on cells; Endogenous target on OVCAR3 cells; kept apart from the recombinant full-length construct; also called mesothelin
T2 sequence (Q13421 other isoform, or with tags, fused parts or gaps): as the sequence (Q13421 other isoform, or with tags, fused parts or gaps limits assumed) above, with P14R counted along it
Briefly: FACS on OVCAR3 cells.
Protocol: (§1) The desired cells were expanded to the logarithmic growth phase in a T-75 cell culture flask. […] After the cells from the previous step were subjected to cell counting, the cell pellet was resuspended to 2×10⁶ cells/mL in a blocking buffer of [PBS+2% (w/w) BSA] and added into a 96-well FACS reaction plate at 50 μL/well. A chimeric antibody (a sample to be tested) was added at 50 μL/well, and the plate was incubated on ice for 2 h. […] After the plate was centrifuged and washed 5 times with a PBST buffer, assay and analysis were performed by FACS (FACS CantoII, purchased from BD). Data analysis was performed by software (Flowjo) to obtain the mean fluorescence intensity (MFI) of the cells.
Turning to B1, the “Maximum mean fluorescence intensity” value was found to be 5260.
As usually defined, the EC50 is the concentration needed to bring the measured effect to its halfway point. Consider B2, for which the response was half-maximal at 2.92 nM (EC50) and the “Maximum mean fluorescence intensity” value was determined as 17600.
On the same counts, the results for B3 are 1 nM and 14600.
On the same counts, the results for B4 are 2.96 nM and 14400.
For B5, the EC50 worked out at 0.57 nM and the “Maximum mean fluorescence intensity” value turned out to be 14800.
Consider B6, for which the midpoint of the response, the EC50, lay at 10.4 nM and the “Maximum mean fluorescence intensity” value was determined as 15400.

A further assay concerns the target T3, human MSLN full-length protein (NCBI: AAH09272.1) expressed on HEK293T-hMSLN-B8 cells (human, UniProt Q13421 296-598).
T3 construct: Whole encoded precursor
Briefly: FACS on HEK293T-hMSLN-B8 cells.
Protocol: as §1
With B1, the concentration for a half-maximal effect (EC50) was about 0.82 nM and the “Maximum mean fluorescence intensity” value came out at 91800.
With B2, a half-maximal effect (EC50) was put at 3.95 nM and the “Maximum mean fluorescence intensity” value came to 148000.
For the molecule B3, the EC50 was 2.39 nM and the “Maximum mean fluorescence intensity” value amounted to 144000.
Taken in the same sequence, the figures for B4 were 0.88 nM and 109000.
On the same counts, the results for B5 are 1.15 nM and 112000.
Consider B6, for which the EC50 is about 0.82 nM and the “Maximum mean fluorescence intensity” value is 98200.

A further assay addresses T4, human MSLN-R3 protein (Met487-Ser606 of NCBI AAH09272.1) expressed on HEK293T-hMSLN-R3 cells (human, UniProt Q13421 487-606).
T4 construct: also called Region3
Briefly: FACS on HEK293T-hMSLN-R3 cells.
Protocol: as §1
Take B1: the “Maximum mean fluorescence intensity” value turned out to be 348 and the binding result was “no binding”.
As to B2, the midpoint of the response, the EC50, lay at 1.48 nM and the “Maximum mean fluorescence intensity” value came out at 3840.
On the same counts, the results for B3 are 0.5 nM and 3880.
For B4, the “Maximum mean fluorescence intensity” value turned out to be 114 and the binding result is “no binding”.
Taken in the same sequence, the figures for B5 were 112 and “no binding”.

For a further assay, the target named is T1, monkey MSLN full-length protein (NCBI: …). Briefly: FACS on HEK293T-monkey MSLN cells.
Protocol: as §1
For B1, the EC50 was 0.44 nM and the “Maximum mean fluorescence intensity” value was 20100.
For the molecule B2, the 50% effective concentration (EC50) was found to be 1.63 nM and the “Maximum mean fluorescence intensity” value amounted to 24300.
Consider B3, for which the half-maximal effective concentration (EC50) is about 0.83 nM and the “Maximum mean fluorescence intensity” value amounted to 20400.
As for B4, the EC50 amounted to 0.3 nM and the “Maximum mean fluorescence intensity” value was 18400.
Regarding B5, the “Maximum mean fluorescence intensity” value came to 138 and the binding result is given as “no binding”.
As to B6, the EC50 was 0.32 nM and the “Maximum mean fluorescence intensity” value is 17100.

The target of the next assay is T5, human MSLN-FL-his protein (human, UniProt Q13421 296-580).
T5 construct: Made in HEK293E cells, purified on nickel column; it is put last here; also called human MSLN full-length protein; hMSLN-FL-his; not shown: His tag
T5 sequence (Q13421 other isoform, or with tags, fused parts or gaps): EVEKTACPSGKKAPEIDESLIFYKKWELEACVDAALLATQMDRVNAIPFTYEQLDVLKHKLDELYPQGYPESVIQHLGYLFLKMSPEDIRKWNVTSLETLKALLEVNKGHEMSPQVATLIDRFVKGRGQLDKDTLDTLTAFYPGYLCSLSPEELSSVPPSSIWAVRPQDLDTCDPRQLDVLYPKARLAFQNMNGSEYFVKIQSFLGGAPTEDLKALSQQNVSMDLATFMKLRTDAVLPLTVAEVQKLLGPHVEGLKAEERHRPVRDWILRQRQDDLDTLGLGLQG
Briefly: ELISA on coated antigen, antibody 1 nM. On the technique in general: In an ELISA, binding on a coated surface is turned into a signal by an enzyme label.
B7 gave an OD450 of 2.21 OD.
Same read-out and setting: with B8 the figure was 2.57 OD; with B9, 2.64 OD.

For the next assay, the target named is T5, human MSLN-FL-his protein. Briefly: ELISA on coated antigen, antibody 10 nM.
Protocol: (§2) The plate was sealed with a plastic film and incubated at 4° C. overnight. The next day, the plate was washed twice with PBST, and a blocking buffer [PBS+2% (w/w) BSA] was added for blocking at room temperature for 2 h. The blocking buffer was discarded, and a chimeric antibody or negative control antibody serially diluted from 100 nM was added at 50 μL/well. After incubation at 37° C. for 2 h, the plate was washed 3 times with PBST. […] After incubation at 37° C. for 2 h, the plate was washed 5 times with PBST. A TMB substrate was added at 50 μL/well for incubation at room temperature for 5-10 min, and then a stop solution (1.0 N HCl) was added at 50 μL/well.
As to B7, the OD450 is 2.69 OD.
Same read-out and setting: with B8 the figure was 2.92 OD; with B9, 2.85 OD.

The target in the next assay is T5, human MSLN-FL-his protein. Briefly: ELISA on coated antigen, antibody 0.1 nM.
Protocol: as §2
The molecule B7 came in with an OD450 of 0.73 OD.
On the same count and under the same terms, then B8, with 1.61 OD.
On the same count and under the same terms, with B9 the figure was 1.63 OD.

The next assay has as its target T5, human MSLN-FL-his protein. Briefly: ELISA on coated antigen, antibody 100 nM.
Protocol: as §2
As to B7, the OD450 was determined as 2.71 OD.
Same read-out and setting: then B8, with 2.95 OD; and B9, with 3.03 OD.

For another assay, the target named is T5, human MSLN-FL-his protein. Briefly: ELISA on coated antigen, antibody 0.01 nM.
Protocol: as §2
Consider B7, for which the OD450 is 0.18 OD.
Same read-out and setting: then B8, with 0.43 OD; and B9, with 0.48 OD.

For another assay, the target named is T5, human MSLN-FL-his protein. Briefly: ELISA on coated antigen, antibody 0.001 nM.
Protocol: as §2
In turn, B7 yielded an OD450 of 0.06 OD.
Same read-out and setting: with B8 the figure was 0.11 OD; with B9, 0.11 OD.

The next assay has as its target T5, human MSLN-FL-his protein. Briefly: ELISA on coated antigen, antibody 0.0001 nM.
Protocol: as §2
In the case of B7, the OD450 worked out at 0.05 OD.
On the same count and under the same terms, with B8 the figure was 0.05 OD; with B9, 0.07 OD.

For the next assay, the target named is T5, human MSLN-FL-his protein. Briefly: ELISA on coated antigen, no antibody (blank, column 'none').
Protocol: as §2
The molecule B7 yielded an OD450 of 0.04 OD.
On the same count and under the same terms, with B8 the figure was 0.06 OD.
With B9, the OD450 was 0.04 OD.
